This passage reports stoichiometry N (MutL dimer per UvrD-Cy3 monomer) results from publication PMC6201271.

The experiment deals with UvrDΔCys(A100C) labeled with Cy3 (E. coli) (UniProt P03018). Put plainly: AUC.

“E. coli MutL protein (from UniProt P23367 1-615) (natural protein)”: the stoichiometry N (MutL dimer per UvrD-Cy3 monomer) worked out at 1.
